Experimental data as given in the supplement of paper PMC10567573.

B1: NCF4 (parent)
chain: FGPDSKSSALACTLPTLPAKVYVG
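Also: lentivirally expressed fusions sorted by FACS into six bins by GFP to DsRed ratio, PSI derived from sequencing read proportions per bin multiplied by bin number.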

Variants of: B1
Experiment: protein stability index of a GFP-peptide fusion (GPS, HEK-293T) (PSI 1-6); higher = more stable
Conditions: c terminus: a fixed tail appended
With FGPDSKSSALACTLPTLPAKVYMG [V23M] the protein stability index was 2.34. Variant FGPDSKSSALACTLPTLPAKVYFG [V23F] has a protein stability index of 1.78. FGPDSKSSALACTLPTLPAKVYAG [V23A] gave a protein stability index of 2.29. FGPDSKSSALACTLPTLPAKVYGG [V23G] showed a protein stability index of 2.66. For FGPDSKSSALACTLPTLPAKVYDG [V23D], the protein stability index was 3.21. For FGPDSKSSALACTLPTLPAKVYYG [V23Y], the protein stability index was 2.39. Variant FGPDSKSSALACTLPTLPAKVYQG [V23Q] has a protein stability index of 2.36. Work on FGPDSKSSALACTLPTLPAKVYEG [V23E] yielded a protein stability index of 2.81. FGPDSKSSALACTLPTLPAKVYRG [V23R] showed a protein stability index of 2.81. FGPDSKSSALACTLPTLPAKVYNG [V23N] showed a protein stability index of 3.2. Variant FGPDSKSSALACTLPTLPAKVYSG [V23S] has a protein stability index of 2.62. Variant FGPDSKSSALACTLPTLPAKVYWG [V23W] has a protein stability index of 2.07. Work on FGPDSKSSALACTLPTLPAKVYKG [V23K] yielded a protein stability index of 2.86. Work on FGPDSKSSALACTLPTLPAKVYPG [V23P] yielded a protein stability index of 2.77. FGPDSKSSALACTLPTLPAKVYHG [V23H] showed a protein stability index of 3.06. With FGPDSKSSALACTLPTLPAKVYIG [V23I] the protein stability index was 2.29. Variant FGPDSKSSALACTLPTLPAKVYTG [V23T] has a protein stability index of 2.96. Work on FGPDSKSSALACTLPTLPAKVYLG [V23L] yielded a protein stability index of 2.67. FGPDSKSSALACTLPTLPAKVYCG [V23C] gave a protein stability index of 2.72. Variant FGPDSKSSALACTLPTLPAKVYVC [G24C] has a protein stability index of 1.65. Work on FGPDSKSSALACTLPTLPAKVYVA [G24A] yielded a protein stability index of 1.83. Variant FGPDSKSSALACTLPTLPAKVLVG [Y22L] has a protein stability index of 2.12. In the case of FGPDSKSSALACTLPTLPAKVVVG [Y22V], the protein stability index is reported as 2.37. For FGPDSKSSALACTLPTLPAKVEVG [Y22E], the protein stability index was 2.85. FGPDSKSSALACTLPTLPAKVMVG [Y22M] showed a protein stability index of 2.7. Work on FGPDSKSSALACTLPTLPAKVSVG [Y22S] yielded a protein stability index of 3.4. With FGPDSKSSALACTLPTLPAKVWVG [Y22W] the protein stability index was 1.67. Variant FGPDSKSSALACTLPTLPAKVHVG [Y22H] has a protein stability index of 2.87. For FGPDSKSSALACTLPTLPAKVIVG [Y22I], the protein stability index was 2.36. FGPDSKSSALACTLPTLPAKVFVG [Y22F] showed a protein stability index of 2.67. With FGPDSKSSALACTLPTLPAKVTVG [Y22T] the protein stability index was 2.93. FGPDSKSSALACTLPTLPAKVDVG [Y22D] gave a protein stability index of 2.83. Variant FGPDSKSSALACTLPTLPAKVAVG [Y22A] has a protein stability index of 2.71. FGPDSKSSALACTLPTLPAKVPVG [Y22P] gave a protein stability index of 2.96. In the case of FGPDSKSSALACTLPTLPAKVRVG [Y22R], the protein stability index is reported as 3.24. FGPDSKSSALACTLPTLPAKVCVG [Y22C] gave a protein stability index of 2.63. FGPDSKSSALACTLPTLPAKVKVG [Y22K] gave a protein stability index of 2.95. In the case of FGPDSKSSALACTLPTLPAKVQVG [Y22Q], the protein stability index is reported as 3.12. Work on FGPDSKSSALACTLPTLPAKVGVG [Y22G] yielded a protein stability index of 3.11. FGPDSKSSALACTLPTLPAKVNVG [Y22N] showed a protein stability index of 2.94. Work on FGPDSKSSALACTLPTLPQKVYVG [A19Q] yielded a protein stability index of 1.91. In the case of FGPDSKSSALACTLPTLPLKVYVG [A19L], the protein stability index is reported as 1.41. For FGPDSKSSALACTLPTLPWKVYVG [A19W], the protein stability index was 1.26. In the case of FGPDSKSSALACTLPTLPTKVYVG [A19T], the protein stability index is reported as 2.05. For FGPDSKSSALACTLPTLPYKVYVG [A19Y], the protein stability index was 1.95. With FGPDSKSSALACTLPTLPFKVYVG [A19F] the protein stability index was 2.35. In the case of FGPDSKSSALACTLPTLPKKVYVG [A19K], the protein stability index is reported as 2.38. With FGPDSKSSALACTLPTLPGKVYVG [A19G] the protein stability index was 2.58. FGPDSKSSALACTLPTLPSKVYVG [A19S] showed a protein stability index of 2.14. For FGPDSKSSALACTLPTLPMKVYVG [A19M], the protein stability index was 1.55. In the case of FGPDSKSSALACTLPTLPVKVYVG [A19V], the protein stability index is reported as 2.76. FGPDSKSSALACTLPTLPRKVYVG [A19R] gave a protein stability index of 2.47. Work on FGPDSKSSALACTLPTLPEKVYVG [A19E] yielded a protein stability index of 2.56. For FGPDSKSSALACTLPTLPHKVYVG [A19H], the protein stability index was 2.17. FGPDSKSSALACTLPTLPPKVYVG [A19P] showed a protein stability index of 2.46. Variant FGPDSKSSALACTLPTLPIKVYVG [A19I] has a protein stability index of 1.87. Variant FGPDSKSSALACTLPTLPNKVYVG [A19N] has a protein stability index of 2.31. For FGPDSKSSALACTLPTLPAVVYVG [K20V], the protein stability index was 1.81. For FGPDSKSSALACTLPTLPAGVYVG [K20G], the protein stability index was 2.38. In the case of FGPDSKSSALACTLPTLPATVYVG [K20T], the protein stability index is reported as 1.98. For FGPDSKSSALACTLPTLPAMVYVG [K20M], the protein stability index was 1.64. In the case of FGPDSKSSALACTLPTLPACVYVG [K20C], the protein stability index is reported as 2.48. Work on FGPDSKSSALACTLPTLPAWVYVG [K20W] yielded a protein stability index of 2.15. For FGPDSKSSALACTLPTLPANVYVG [K20N], the protein stability index was 2.49. FGPDSKSSALACTLPTLPAQVYVG [K20Q] showed a protein stability index of 2.08. With FGPDSKSSALACTLPTLPAYVYVG [K20Y] the protein stability index was 2.58. With FGPDSKSSALACTLPTLPADVYVG [K20D] the protein stability index was 2.64. Work on FGPDSKSSALACTLPTLPAPVYVG [K20P] yielded a protein stability index of 2.35. Variant FGPDSKSSALACTLPTLPARVYVG [K20R] has a protein stability index of 2. Variant FGPDSKSSALACTLPTLPAEVYVG [K20E] has a protein stability index of 2.13. Variant FGPDSKSSALACTLPTLPAHVYVG [K20H] has a protein stability index of 2.19. With FGPDSKSSALACTLPTLPAIVYVG [K20I] the protein stability index was 2.76. Work on FGPDSKSSALACTLPTLPAFVYVG [K20F] yielded a protein stability index of 2.48. FGPDSKSSALACTLPTLPASVYVG [K20S] gave a protein stability index of 2.31. In the case of FGPDSKSSALACTLPTLPAAVYVG [K20A], the protein stability index is reported as 2.01. Variant FGPDSKSSALACTLPTLPAKGYVG [V21G] has a protein stability index of 2.56. In the case of FGPDSKSSALACTLPTLPAKYYVG [V21Y], the protein stability index is reported as 2.1. Variant FGPDSKSSALACTLPTLPAKIYVG [V21I] has a protein stability index of 1.91. FGPDSKSSALACTLPTLPAKKYVG [V21K] gave a protein stability index of 3.09. With FGPDSKSSALACTLPTLPAKEYVG [V21E] the protein stability index was 3.17. With FGPDSKSSALACTLPTLPAKRYVG [V21R] the protein stability index was 3.29. With FGPDSKSSALACTLPTLPAKDYVG [V21D] the protein stability index was 3.28. Variant FGPDSKSSALACTLPTLPAKAYVG [V21A] has a protein stability index of 2.71. With FGPDSKSSALACTLPTLPAKQYVG [V21Q] the protein stability index was 2.81. Work on FGPDSKSSALACTLPTLPAKHYVG [V21H] yielded a protein stability index of 2.44. In the case of FGPDSKSSALACTLPTLPAKPYVG [V21P], the protein stability index is reported as 2.73. FGPDSKSSALACTLPTLPAKMYVG [V21M] gave a protein stability index of 1.8. FGPDSKSSALACTLPTLPAKTYVG [V21T] showed a protein stability index of 3.05. FGPDSKSSALACTLPTLPAKLYVG [V21L] showed a protein stability index of 1.91. In the case of FGPDSKSSALACTLPTLPAKNYVG [V21N], the protein stability index is reported as 3.32. Variant FGPDSKSSALACTLPTLPAKSYVG [V21S] has a protein stability index of 2.61. In the case of FGPDSKSSALACTLPTLPAKFYVG [V21F], the protein stability index is reported as 2. Variant FGPDSKSSALACTLPTLPAKWYVG [V21W] has a protein stability index of 2.63. For FGPDSKSSALACTLPTLPAKCYVG [V21C], the protein stability index was 2.58.
